Numbering of substitutions follows the chain as printed. In names and notes the source's numbering stands. Values belong to the binder of their own block, whether it stands above or below them.
Columns and labels:
[1] = biological target: T1, human IL-1α (human, UniProt P01583 113-271); assay: cell-based or functional assay
T1 sequence: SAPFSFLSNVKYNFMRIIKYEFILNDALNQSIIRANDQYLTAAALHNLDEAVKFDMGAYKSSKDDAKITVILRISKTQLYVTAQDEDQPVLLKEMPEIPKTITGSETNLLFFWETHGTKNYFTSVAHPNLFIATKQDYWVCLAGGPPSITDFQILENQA

[2] = biological target: T2, cynomolgus IL-1α (cynomolgus, UniProt P79340 113-271, limits assumed); assay: cell-based or functional assay
T2 sequence (looked up): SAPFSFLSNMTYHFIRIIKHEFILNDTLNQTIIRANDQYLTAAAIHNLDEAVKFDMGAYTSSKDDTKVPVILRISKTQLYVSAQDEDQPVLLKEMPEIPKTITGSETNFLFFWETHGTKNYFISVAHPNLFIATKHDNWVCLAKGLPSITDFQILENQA

[3] = biological target: T1, human IL-1α; assay: ELISA; antibody captured by anti-human Fc, biotinylated antigen titrated
Experimental: Plates were washed five times in washing buffer (PBS containing 0.05% Tween 20), and blocked for 1 hour at 25° C. with 200 μl per well superblock blocking buffer (Thermo scientific, #37515). Blocking buffer was removed by tapping plates, and 2 μg/ml of each antibody in PBS containing 10% superblock, 0.5% tween-20 was added to the wells at 100 μl per well and incubated at 25° C. for 1 hour. The wells were washed five times in 1×PBST, and 1 μg/ml biotinylated antigen was titrated at 1:6 serial dilutions (for a range of μg to pg in PBS containing 10% superblock, 0.05% Tween 20). Each dilution of antigen was then added to the plates and incubated for 1 hour at 25° C. The wells were washed five times in 1XPBST and incubated for 1 hour at […]. with polyHRP streptavidin (KPL #474-3000, Gaithersburg, Md.). The wells were washed five times in 1XPBST, and 100 μl of ULTRA-TMB ELISA (Pierce, Rockford, Ill.) were added per well. Following color development the reaction was stopped with 1N HCL and absorbance at 450 nm is measured. The results are shown in Table 11 and the numerical value indicates binding of human anti-IL-1a antibodies to human IL-1α.

[4] = biological target: T1, human IL-1α; assay: SPR (Biacore 3000), antibody captured, antigen in solution, 25 °C
Experimental: (§1) The BIACORE assay (Biacore, Inc, Piscataway, N.J.) determines the affinity of antibodies with kinetic measurements of on-, off-rate constants. Binding of antibodies to recombinant purified human IL-1α and cynomolgus IL-1α was determined by surface plasmon resonance-based measurements with a Biacore® 3000 instrument (Biacore® AB, Uppsala, Sweden) using running HBS-EP (10 mM HEPES [pH 7.4], 150 mM NaCl, 3 mM EDTA, and 0.005% surfactant P20) at 25° C. All chemicals were obtained from Biacore® AB (Uppsala, Sweden) or otherwise from a different source as described in the text. Approximately 5000 RU of goat anti-mouse IgG, (Fcγ), fragment specific polyclonal antibody (Pierce Biotechnology Inc, Rockford, Ill.) diluted in 10 mM sodium acetate (pH 4.5) was directly immobilized across a CM5 research grade biosensor chip using a standard amine coupling kit according to manufacturer's instructions and procedures at 25 μg/ml. Unreacted moieties on the biosensor surface were blocked with ethanolamine. Modified carboxymethyl dextran surface in flowcell 2 and 4 was used as a reaction surface. Unmodified carboxymethyl dextran without goat anti-mouse IgG in flow cell 1 and 3 was used as the reference surface. For kinetic analysis, rate equations derived from the 1:1 Langmuir binding model were fitted simultaneously to association and dissociation phases of all eight injections (using global fit analysis) with the use of Biaevaluation 4.0.1 software. Purified antibodies were diluted in HEPES-buffered saline for capture across goat anti-human IgG specific reaction surfaces. Antibodies to be captured as a ligand (25 μg/ml) were injected over reaction matrices at a flow rate of 5 μl/minute. The association and dissociation rate constants, kₒₙ (unit M⁻¹s⁻¹) and koff (unit s⁻¹) were determined under a continuous flow rate of 25 μl/min Rate constants were derived by making kinetic binding measurements at ten different antigen concentrations ranging from 10-200 nM. The equilibrium dissociation constant (unit M) of the reaction between antibodies and the target antigen was then calculated from the kinetic rate constants by the following formula: KD=koff/kₒₙ. Binding is recorded as a function of time and kinetic rate constants are calculated. In this assay, on-rates as fast as 10⁶M⁻¹s⁻¹ and off-rates as slow as 10⁻⁶ s⁻¹ can be measured.

[5] = biological target: T2, cynomolgus IL-1α; assay: as above
Experimental: as §1

B1: 3D12-372-10 (antibody, V domains shown)
VH: EIQLVQSGAEVKKPGASVKVSCKASGYTFTNYGMNWVRQAPGQGLEWMGWINTYTGESTYADDFKGRFTFTLDTSTSTAYMELSSLRSEDTAVYFCARGIYYYGSSYAMDYWGQGTTVTVSS
VL: DIQMTQSPSSLSASVGDRVTITCRASQDISDMLNWYQQKPGKTPKLLIYHTSRLYSGVPSRFSGSGSGTDYTFTISSLQPEDIATYFCQQGKTLPPAFGQGTKLEIKR
notes: no constant regions are stated for this clone
Potency on hIL-1α (pM); inhibition of IL-1α induced hIL-8 production by MRC-5 cells [1]: 49.9 pM
Potency on cyno IL-1α (pM); inhibition of IL-1α induced hIL-8 production by MRC-5 cells [2]: 49.2 pM
EC50 [3]: 0.0721 nM

B4: 3D12-362-10 (antibody, V domains shown)
VH: B1 VH with I2V, A16V, N31T, N35H, K65Q, F68V, D110N
VL: B1 VL with D31N, M32C, H50Y, Y55H, P96Y
notes: no constant regions are stated for these clones; The humanized parents used human IgG1 with L234A/L235A and human kappa
Potency on hIL-1α (pM); inhibition of IL-1α induced hIL-8 production by MRC-5 cells [1]: 4.8 pM
Potency on cyno IL-1α (pM); inhibition of IL-1α induced hIL-8 production by MRC-5 cells [2]: 6.2 pM
Kd [4]: 0.0528 nM
koff [4]: 8.38e-05 s⁻¹
kon [4]: 1.59e+06 M⁻¹ s⁻¹
Kd [5]: 0.0135 nM
koff [5]: 2.19e-05 s⁻¹
kon [5]: 1.63e+06 M⁻¹ s⁻¹
EC50 [3]: 0.0196 nM

B5: 3D12.6 (antibody, V domains shown)
VH: EIQLVQSGSELKKPGASVKVSCKASGYTFTNYGMNWVRQAPGQDLERMAWINTYTGESTYADDFKGRFVFSLDTSVSTAYLQISSLKAEDTAVYFCARGIYYYGSSYAMDYWGQGTTVTVSS
VL: DIQMTQSPSSLSASVGDRVTITCRASQDISNCLNWYQQKPGKTPKLLIYYTSRLHSGVPSRFSGSGSGTDYTFTISSLQPEDIATYFCQQGKTLPYAFGQGTKLEIK
notes: Full-length humanized antibody; VH is fused to a human IgG1 constant region with L234A and L235A (EU numbering); also called VH H3D12VH.1A / VL H3D12VK.1C; VH3D12.6
Kd [4]: 1.78 nM
koff [4]: 0.00206 s⁻¹
kon [4]: 1.16e+06 M⁻¹ s⁻¹

More lines, now with the values ahead:

Potency on hIL-1α (pM); inhibition of IL-1α induced hIL-8 production by MRC-5 cells [1]: 38.6 pM
EC50 [3]: 0.0742 nM
B2: 3D12-372-15 (antibody, V domains shown)
VH: B1 VH with G44D
VL: B1 VL with D31N, H50Y, S56P, P96Y
notes: as for B1

Potency on hIL-1α (pM); inhibition of IL-1α induced hIL-8 production by MRC-5 cells [1]: 29.3 pM
Potency on cyno IL-1α (pM); inhibition of IL-1α induced hIL-8 production by MRC-5 cells [2]: 4.9 pM
EC50 [3]: 0.133 nM
B3: 3D12-362-10/372-10 (antibody, V domains shown)
VH: B1 VH with I2V, A16V, N31T, N35H, K65Q, F68V, D110N
VL: B1 VL

Kd [4]: 0.665 nM
koff [4]: 0.00108 s⁻¹
kon [4]: 1.64e+06 M⁻¹ s⁻¹
B6: 3D12.11 (antibody, V domains shown)
VH: B1 VH with G44D, W47R, G49A
VL: B5 VL
notes: Full-length humanized antibody; VH is fused to a human IgG1 constant region with L234A and L235A (EU numbering); also called VH H3D12VH.2A / VL H3D12VK.1C; VH3D12.11

Source: US20120275996A1 (AbbVie / Abbott, published 2012)
